Reference: article PMC4047056

Key:
[1] = molecular target: Kv2.1 subunit (unlabeled) (human) (UniProt Q14721)
[2] = molecular target: CFP-tagged N-terminal Kv6.4 fragment (human); test: FRET or BRET; acceptor (YFP) photobleaching FRET in HEK293 cells co-transfected with CFP- and YFP-tagged fragments in a 1:2 cDNA ratio, 48 h after transfection; only cells with YFP/CFP intensity ratio >1
[3] = molecular target: CFP-tagged N-terminal Kv2.1 fragment (human); test: as above
[4] = molecular target: CFP-tagged Kv6.4 C-terminus (human); test: as above
[5] = molecular target: CFP-tagged C-terminal segment of Kv2.1 (human); test: as above
[6] = molecular target: CFP-tagged N-terminal Kv3.1 fragment (human); test: as above
Chain of CFP-tagged N-terminal Kv3.1 fragment (human) (P48547 whole entry, the tested form may be a part): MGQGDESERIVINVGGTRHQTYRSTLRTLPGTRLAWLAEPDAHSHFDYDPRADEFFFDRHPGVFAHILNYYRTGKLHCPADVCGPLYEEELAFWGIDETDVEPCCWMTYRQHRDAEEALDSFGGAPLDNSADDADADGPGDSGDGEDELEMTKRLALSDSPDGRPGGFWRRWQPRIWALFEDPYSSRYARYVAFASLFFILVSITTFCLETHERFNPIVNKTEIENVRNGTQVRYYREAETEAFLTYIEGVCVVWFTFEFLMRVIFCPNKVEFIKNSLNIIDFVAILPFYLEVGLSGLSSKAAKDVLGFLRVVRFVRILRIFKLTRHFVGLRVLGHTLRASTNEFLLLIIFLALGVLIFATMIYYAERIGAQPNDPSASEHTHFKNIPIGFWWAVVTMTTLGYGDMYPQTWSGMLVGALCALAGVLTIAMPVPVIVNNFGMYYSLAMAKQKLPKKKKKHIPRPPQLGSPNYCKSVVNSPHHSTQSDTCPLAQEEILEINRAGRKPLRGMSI

Chain of YFP-tagged N-terminal Kv3.1 fragment (domain or fragment) (P48547 whole entry, the tested form may be a part): as above
Chain of CFP-tagged N-terminal Kv6.4 fragment (human) (Q8TDN1 whole entry, the tested form may be a part): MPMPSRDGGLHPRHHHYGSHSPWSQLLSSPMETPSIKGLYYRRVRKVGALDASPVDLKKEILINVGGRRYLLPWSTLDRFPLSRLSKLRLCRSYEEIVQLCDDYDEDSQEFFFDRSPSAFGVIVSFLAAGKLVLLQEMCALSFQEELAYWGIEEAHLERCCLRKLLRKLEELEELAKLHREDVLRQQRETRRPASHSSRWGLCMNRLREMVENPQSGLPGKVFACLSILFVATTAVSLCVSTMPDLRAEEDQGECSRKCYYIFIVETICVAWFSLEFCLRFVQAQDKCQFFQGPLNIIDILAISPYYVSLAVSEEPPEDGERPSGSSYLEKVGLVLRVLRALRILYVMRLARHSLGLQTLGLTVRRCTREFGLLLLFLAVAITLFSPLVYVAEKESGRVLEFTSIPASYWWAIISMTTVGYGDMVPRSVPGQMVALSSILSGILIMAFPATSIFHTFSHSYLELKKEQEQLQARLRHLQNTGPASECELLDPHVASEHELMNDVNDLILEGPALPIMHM
Chain of CFP-tagged Kv6.4 C-terminus (human) (Q8TDN1 whole entry): as the sequence (Q8TDN1 whole entry, the tested form may be a part) above

midpoint of inactivation, V1/2, 1st component of the double Boltzmann fit (as of Kv2.1 homotetramers), whole-cell currents in HEK293 cells co-expressing Kv2.1 and Kv6.4(CKv3.1) [1] | midpoint of inactivation, V1/2, 2nd component of the double Boltzmann fit, whole-cell currents in HEK293 cells co-expressing Kv2.1 and Kv6.4(CKv3.1) [1] | FRET efficiency [2] | FRET efficiency [3] | FRET efficiency [4] | FRET efficiency [5] | FRET efficiency [6] | Substance
-24.3 mV | -71.1 mV |  |  |  |  |  | Kv6.4(CKv3.1) chimera in which the C-terminus of Kv6.4 was replaced by the corresponding domain of Kv3.1
 |  | 21.3% | 21.7% | 8.7% | 8.3% |  | YFP-tagged N-terminal Kv2.1 fragment (domain or fragment)
 |  | 9.6% |  |  |  | 28.8% | YFP-tagged N-terminal Kv3.1 fragment (domain or fragment)
